The target of assay [1] is C5b6 complex generated on convertase-labelled E. coli from C5 and C6 (human) (UniProt P01031).
Assay [2] has the same target. The source holds these as a separate data set.
For assay [3] the target is unchanged. The source holds these as a separate data set.

Sequence of UniProt P01031 (P01031 19-673, chain 1 of 3): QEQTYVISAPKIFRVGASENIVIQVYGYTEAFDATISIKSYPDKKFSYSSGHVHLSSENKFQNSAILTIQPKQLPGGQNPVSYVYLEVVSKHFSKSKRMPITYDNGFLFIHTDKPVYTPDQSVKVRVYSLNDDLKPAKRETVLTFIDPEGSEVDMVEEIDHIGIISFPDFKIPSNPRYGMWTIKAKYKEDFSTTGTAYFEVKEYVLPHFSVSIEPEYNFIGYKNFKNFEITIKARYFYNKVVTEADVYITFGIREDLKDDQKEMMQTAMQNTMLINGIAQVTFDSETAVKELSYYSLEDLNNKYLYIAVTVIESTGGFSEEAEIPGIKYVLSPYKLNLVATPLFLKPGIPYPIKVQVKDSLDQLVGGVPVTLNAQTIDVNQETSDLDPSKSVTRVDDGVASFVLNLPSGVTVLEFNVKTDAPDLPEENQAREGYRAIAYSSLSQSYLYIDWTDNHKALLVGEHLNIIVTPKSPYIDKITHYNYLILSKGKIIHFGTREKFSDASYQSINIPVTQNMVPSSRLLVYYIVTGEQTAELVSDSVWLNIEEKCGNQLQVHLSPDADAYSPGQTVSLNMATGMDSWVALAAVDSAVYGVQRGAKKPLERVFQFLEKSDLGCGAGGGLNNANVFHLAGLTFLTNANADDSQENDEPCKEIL
Sequence of UniProt P01031 (P01031 752-1676, chain 2 of 3): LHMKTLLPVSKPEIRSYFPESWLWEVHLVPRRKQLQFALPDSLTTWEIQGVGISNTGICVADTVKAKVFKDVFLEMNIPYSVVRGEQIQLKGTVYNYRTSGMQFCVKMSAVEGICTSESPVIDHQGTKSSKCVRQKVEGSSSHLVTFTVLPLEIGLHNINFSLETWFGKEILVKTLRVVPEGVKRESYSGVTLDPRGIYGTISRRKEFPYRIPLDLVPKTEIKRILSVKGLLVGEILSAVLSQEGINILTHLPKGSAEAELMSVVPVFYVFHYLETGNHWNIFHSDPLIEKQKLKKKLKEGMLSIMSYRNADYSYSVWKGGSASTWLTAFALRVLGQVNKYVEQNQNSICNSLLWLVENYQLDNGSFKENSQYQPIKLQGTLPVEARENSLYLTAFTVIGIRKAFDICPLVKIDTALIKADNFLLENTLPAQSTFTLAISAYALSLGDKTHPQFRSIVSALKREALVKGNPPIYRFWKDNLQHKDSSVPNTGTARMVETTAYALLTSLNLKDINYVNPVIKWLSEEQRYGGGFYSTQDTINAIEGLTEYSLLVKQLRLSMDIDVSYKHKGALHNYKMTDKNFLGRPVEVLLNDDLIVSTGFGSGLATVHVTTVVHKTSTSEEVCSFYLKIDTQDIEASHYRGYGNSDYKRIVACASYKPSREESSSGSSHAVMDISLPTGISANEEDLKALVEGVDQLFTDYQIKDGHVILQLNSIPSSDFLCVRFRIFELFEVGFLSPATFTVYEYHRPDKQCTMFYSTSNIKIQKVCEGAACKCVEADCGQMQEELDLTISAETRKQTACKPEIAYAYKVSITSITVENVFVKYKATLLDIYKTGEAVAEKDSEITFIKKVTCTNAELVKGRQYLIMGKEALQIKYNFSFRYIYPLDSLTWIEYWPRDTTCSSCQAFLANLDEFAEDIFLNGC
Sequence of UniProt P01031 (P13671 22-934, chain 3 of 3, further chain): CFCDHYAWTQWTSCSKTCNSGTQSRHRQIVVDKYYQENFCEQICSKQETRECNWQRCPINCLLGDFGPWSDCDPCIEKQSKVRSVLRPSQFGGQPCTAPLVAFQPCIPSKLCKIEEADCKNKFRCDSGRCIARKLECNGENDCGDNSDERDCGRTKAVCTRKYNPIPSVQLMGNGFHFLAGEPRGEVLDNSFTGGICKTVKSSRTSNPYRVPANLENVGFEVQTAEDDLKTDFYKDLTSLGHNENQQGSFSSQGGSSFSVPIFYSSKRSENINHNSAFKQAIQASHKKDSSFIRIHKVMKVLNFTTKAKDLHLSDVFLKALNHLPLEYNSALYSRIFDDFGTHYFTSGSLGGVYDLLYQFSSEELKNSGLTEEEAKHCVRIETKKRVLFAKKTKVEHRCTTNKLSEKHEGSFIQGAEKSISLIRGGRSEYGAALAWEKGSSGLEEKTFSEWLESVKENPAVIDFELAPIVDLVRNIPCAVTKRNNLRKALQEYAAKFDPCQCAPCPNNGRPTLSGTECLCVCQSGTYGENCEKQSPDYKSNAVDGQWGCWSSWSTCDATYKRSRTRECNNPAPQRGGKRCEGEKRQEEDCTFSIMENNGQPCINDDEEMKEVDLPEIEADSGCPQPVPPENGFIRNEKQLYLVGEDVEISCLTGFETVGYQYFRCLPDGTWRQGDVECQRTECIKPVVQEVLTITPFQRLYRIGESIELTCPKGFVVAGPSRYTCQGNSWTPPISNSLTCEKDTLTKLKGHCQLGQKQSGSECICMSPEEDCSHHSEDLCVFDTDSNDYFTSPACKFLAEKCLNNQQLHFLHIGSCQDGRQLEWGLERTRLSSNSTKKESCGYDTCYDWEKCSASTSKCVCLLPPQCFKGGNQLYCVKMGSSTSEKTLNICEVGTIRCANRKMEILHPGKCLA

In turn, “His-tagged complement component C7 (from UniProt P10643 23-843) (natural protein)” displayed a percentage of Sytox positive (inner membrane damaged) E. coli MG1655 after addition of C8 and C9; C7 present from t = 0 (~100%) or added 60 minutes after C5b6 generation was initiated (~6%) in assay [1] of 100%. Besides, in assay [2], the deposition of C9-Cy5 (geoMFI) on E. coli MG1655, C5b6 generated in the absence of C7 against in the presence of C7 was determined as 50 fold and the fluorescence ratio C9:C6 on E. coli MG1655, C5b6 generated in the presence of C7 against in the absence of C7 was determined as 10 fold. Moreover, in assay [3], the deposition of C6-Cy5 (geoMFI) on convertase-labelled E. coli MG1655 after 60 minutes, C5b6 generated in the presence of C7 against in its absence amounted to 10 fold.

For the origin of these results see PMC7351214.
